Test results as given in the DeepSol protein solubility set.

test: soluble on expression in E. coli; label from the status in PepcDB or PDB records

Sequence	soluble on expression in E. coli
MGSDKIHHHHHHMKKKSMIVLTSAFVLLSAFSCGGGGKATGTNEQSEKVVVNVPQFDADSAYLYVKNQVDFGPRVPNTKEHVACGNYLAGKLEAFGAKVTNQYADLIAYDGTLLKARNIIGSYKPESKKRIALFAHWDTRPWADNDADEKNHHTPILGANDGASGVGALLEIARLVNQQQPELGIDIIFLDAEDYGTPQFYEGKHKEEAWCLGSQYWSRNPHVQGYNARFGILLDMVGGENSVFLKEGYSEEFAPDINKKVWKAAKKAGYGKTFIDERGDTITDDHLFINRLARIKTIDIIPNDPETGFPPTWHTIHDNMDHIDKNTLKAVGQTVLEVIYNEK	not soluble
MGSDKIHHHHHHMSLVVGSARIDENGHISGGKPGDQTGNEVSTQAYYVHSKGWYCLRPKSITVANAIAEAMLQGCRNNNIGYCQGHRSNVIEQLRRVGKLSKISVKTEADCSSLVRACCIQAGFDPGNFNTASEASALKATGQFMEAIAVTSKTELFNGDVLVTKTKGHTVVVVSGNPRHGNTYYPKYEGTSGSIITALAAVGEKDTSKAHRAKIAAANGITNYAYTAAQNTKMVNLLKKGKLIKA	not soluble
MLEMLEYNHYQVQTHLENPTKYHIQQAQRQQVKQYLSTTLANKHANQVLSLPCPNQPGDHVMPPVPGSSAPNSPMAMLTLNSNCEKEGFYKFEEQNRAESECPGMNTHSRASCMQMDDVIDDIISLESSYNEEILGLMDPALQMANTLPVSGNLIDLYGNQGLPPPGLTISNSCPANLPNIKRELTESEARALAKERQKKDNHNLIERRRRFNINDRIKELGTLIPKSNDPDMRWNKGTILKASVDYIRKLQREQQRAKELENRQKKLEHANRHLLLRIQELEMQARAHGLSLIPSTGLCSPDLVNRIIKQEPVLENCSQDLLQHHADLTCTTTLDLTDGTITFNNNLGTGTEANQAYSVPTKMGSKLEDILMDDTLSPVGVTDPLLSSVSPGASKTSSRRSSMSMEETEHTC	soluble
GPGSMQMEEKQAFFVESVDGRKFKMVIRGDLGKLSVAKIRRYLKSYGVPENQLLLAGNRVLEDAMLGEQFGLENEGVLHLREPTTVQHLAPAAVPSTAQSRTQLQQKPELSYEPQSAWRETRYEPAAHDARQMQREIERLQRQVEAAEARNADLEHQLEQVAESSAPYPPRGGAGGARRMSNSSDLDGLQVAKQSLKILAQKLGVSLQFDKNLTCVVGTDADFSILLTYDPATERLYIYSSLLTELPDHPPLRMKLYEVLLEGSLLGREVCGGGVGLSTQNNVVVLTTSLPVRHCSPEALCEVMPLFVETLVRWRSLIDELVR	soluble
MSLARFVVLVIDSFGVGAMKDVTLVRPQDAGANTCGHILSQLPHLQLPTLETLGLINALGYAPGDMQPSDSATWGVAELQHEGGDTFMGHQEILGTRPLPPLRMPFRDVIDRVEQALVSAGWQVERRGDDLQFLWVNQAVAIGDNLEADLGQVYNITANLSVISFDDAIKIGRIVREQVQVGRVITFGGLLTDSQRILDAAESKEGRFIGINAPRSGAYDNGFQVVHMGYGVDEKVQVPQKLYEAGVPTVLVGKVADIVNNPYGVSWQNLVDSQRIMDITLNEFNTHPTAFICTNIQETDLAGHAEDVARYAERLQVVDRNLARLVEAMQPDDCLVVMADHGNDPTIGHSHHTREVVPVLVYQQGMIATQLGVRTTLSDVGATVCEFFRAPPPQNGRSFLSSLRFAGDTLEGHHHHHH	soluble
MAHHHHHHMILPRYAYAHADMDQKQMQKLLLMGPGGAGKTCMRSIIFDNYLPRDALRLGITISLDQSQVHILRNLFLNLWDCGGQHRYVTEYLNRQKEYIFRYVGVMLFVFDINSMCRDSHGGIGGLGGVGGESSSATTDWKLPEMLEYFREAMRFIRQYSPKAKVFVLLHKIDLIHKDIREEIFQARKQEILNCIDSDNGMNIEFFGTSIWSDSLYLAYSSVVRSLVPHRDVLVEMMRGIAMACDAAEVALYERSTFLCLTHINRKAAADGSKALFLQGDGELRTTEVSETVKHFKLSCMNNTTSLGGLSITTETFTALLCPFTECTHVLVVSVDPKVNVELHRLNVNAARRRFEQFLDSDEPTACAMREVL	not soluble
RDTVVTLLLDNSGSMRGRPISIAAICADVLARTLERCNVKVEILGFTTRAWKGGLAREAWLNEGRPQQPGRLNDLRHIIYKAADAPMRRTRQNLGLMMKEGLLKENIDGEALEWAHRRMLGRREQRKILMVISDGAPVDDSTLSVNPANYLEKHLRDVIAMVERRKQVELLAIGIGHDVTRYYQRAVTITDVEQLAGAMTEQLAALFDSDPRARARVMGMKRAS	not soluble
MKRVEDWIKQAERDLEEARYAKSGGYYELACFLSQQCAEKAVKGLLQFQGIEKRGHSISHLLTNPPADILQCATFLDKQYTPSRYPDVYYEGAPYEYYTERDADECINCAIRILNWVKGQIK	soluble
MSLNGDNQQILREIVLNPTIHGKELESIFGLSRRQLGYRIQKINLWLEQEGYPKLERTSQGNFIVSSEIMTLFKRDVSEQQMLNGNNVIFSIETRRYYLMLMLFSKENAMSLNHFSIDLQVSKNTVIHDINHVKEQLENHGLSLKYSRKHGYEIVGDEFEVRRFFIKLIDQRLNHDITKSEVLKALNLTFEDIAYQKDKIKQVEQFLKSRFIDKSLSSLPYVLCVIRRRIQSGHVMNPLNINYQYLRDTKEYQATEIMTQHEPDLPEAEKLYLTLHLLSTSVQWTDLQESDSISNLTMAIAQMIHHFEQITFINIEDKEKLSQQLLLHLTPAFYRIKYNLTDRDELINPLQGNYQSLFHMVKQSCQSLTEYFGKSLPDNEIAYLTMLFGGSLRREGHHHHHH	soluble
AHHHHHHGSDIKPGKITVQANPNMPEEIANLFRKQHYELVGRHSGVKLCHWLKKSLTEGRFCYKQKFYGIHSHRCLQMTPVLAWCTHNCIFCWRPMETFLGTEVPEPWDDPAFIVEESIKAQRKLLVGYKGNPKVDKKKFEEAWEPKHAAISLSGEPMLYPYMGDLVEEFHKRGFTTFIVTNGTVPESLREMIKDDKLPTQLYVSLTAPDIESYNKVNIPMIPDGWEKILEFLELMRDIPTRTVVRLTLVKGENMHNPEGYARLIMKARPMFVEAKAYMFVGFSRNRLTINNMPSHEDIREFAEALVKYLPGYHIEDEYEPSRVVLIMRDDVDPSGTGLEGRFIKH	not soluble
MVKKEFQLTHIFKNVSKLKVGKFAWTPMKEHFNVSWQIAITRTHFRNEEKMEIQVGCQKLTKDDVPAGVEGEFTIKLTNSSGISTSKSSRLKLVKNGGLGFLKIVWKVMQDEYLIDDSIIIEATVKITKMTGISKKPLKCFDQSKEKFSDVILAVGDQKFFVLRKFLASHSTFFESRFLGNFDEADKSEVTLRDIDSADFQNLLEVLYGEPAIDDDTVDGILHLAHMYDIPLPIRKCEEFLIEVSEKSMKDQLVLAKQYQLEKLKVKKKT	not soluble
MNIILKISGKFFDEDNVDNLIVLRQSIKELADNGFRVGIVTGGGSTARRYIKLAREIGIGEAYLDLLGIWASRLNAYLVMFSLQDLAYMHVPQSLEEFIQDWSHGKVVVTGGFQPGQSTAAVAALVAEASSSKTLVVATNVDGVYEKDPRIYADVKLIPHLTTQDLRKILEGSQSVQAGTYELLDPLAIKIVERSKIRVIVMNYRKLNRIIDILKGEEVSSIIEPV	soluble
SYLYTLYSDVRTEVAKMERVAWLEVVGKFETEKLTPNSLYEVVFVVKLIDSAKGWDFRVNFKLVLPTGETKERRENVNLLERNKWVEIPAGEFMISPEHLSGKIEFSMLEVKSDQWKSGLIVKGVAIRPKN	soluble
MGSSRKTANAATNNFPCHGSCPEPSFQIQVIARGVRRRRSPIDQPSMEADVDTDIIDHLKTLHTSEIDARNGYEEALEDAEGKGLTSLFRDMIALHHGNAEELAGMLINAGETADDSGSFMSVVHRTIMSVRSLFDGLDGSVLPGLIDGEKRNLSKYDDALKAIAGIPSISSTLSAQRAKISEKIALMEQQKAAYEAAT	not soluble
EGRYIYMNPAHREMFGIATEDEILGRSWRELYSGDVADHIATTALPALLSTGGWRGELIGRRRDGSDLPQEVSLTLKADGGIICISRD	not soluble
MAHHHHHHMLPRGEQHVSVAGSDDYMDDAASALLSELQQVVVRVSHQMVEERRRAAQQRKQIRALEAIVAEQDAMLDALRTQCDAAQCEKSRLLKSYQQELRWRGADPVQAARRSRDICGTSGTHVSAAQVDNVVQAEFRRLSTIYESCPFSGFDDVSPVVAAVLRSLATQVLQLRGAARNDEAEASDISKDAQPAPVQPHATSSSLRASARGTSTSSLMPAFNRSAPTDGHGKAGVVDRVTPLAALEKRKKASMFAAATAGPNHSPSETAGRTNGEEAELHRVDLDAGRNGDADAAACMASEASASVASSVCEDAASILSDIRARYGL	not soluble
MAHHHHHHMSSIKINKDESKRVHIWIKSAIGTPNRRQFKHKNIMYPYFRMYKSPYRARDSRTRQAFWPCVDKYPWHTHQKRWVDIEQLNLKFFSEFTNKDPSRKNLFETCHTLPFNGINCLFWNPIYLNSHKFFLKKNKKDANRGEDNNMEENDDVKENTIEGNDDVKEHAIEGYTNNNVNNHNDIINQYDENKKVIKINDFHYIVDKDVKNNTYFYLKYIKYSMRPFRGKLIGDIYLNQTKIRHNISAKGFVNGEWKYSYPHININKKIEHISLNNNLTSNDIYSNNINNLVIVDKYTYRPPLPKSYIFQKDIL	not soluble
MRIVVTRPQRSGERTAAKLEALGHAPVLLPLFHPIHHGERATSALSDPAGAIAVTSAEALRALATCEEQLAPYLSKPLFAVGGATAEAAQETGFEQIFTASGDALGLTVLVKQHRAFLTEEEPLLYLAGRPRGSVFEEGLAAAGIPFRTVDCYEMLPSDISENTLETTLLDTTADMVLLYSSEAARAFFHHVSADKYVTALAATKFICISRNVLFLVPEIFRANAKAAEEPSEAAMFELLHHNSGT	not soluble
AHHHHHHGSENPYEIVGVVAREILDSRGNPTVEVDVYTHVGMGRAAVPSGASTGTHEALELRDGGKRYHGKGVRRAVENVNKIIAPELIGMDVRWQREIDALLLELDGTENKSNVGANAILAVSLAVAKAAANSLELPLYQYLGGVNAYVLPVPLSNVINGGVHAGNDLDFQEFMIMPIGADSFREAIRWVSETYHVLKKVIMEKYGKNAVNVGDEGGFAPPMKEVTEPLDVLIKAIEEAGYKPGDEIALALDVASSELFNEETGKYVVGGKEYDRGELLELYKDLTSTYPIVSIEDPFHEEDWEGFVMITKELGHKVQIVGDDLFVTNPKRLRKGIELGAANALLLKVNQIGTLSEAMDAAFTAFRAGYGVIVSHRSGETEDATIADLAVALNAGQIKTGAPARSDRNAKYNQLIRIEEELEGVAVYAGKRFRKVFF	soluble
MGSDKIHHHHHHMKISCKNVGVILPIFNSSHRSFKKTFLQAASGGRIGSSNTGIIEVEALKKIDFTLTEGNRLALIGHNGSGKTTLLRVLAGAYKPTSGKYECIGRVTSLIDPMMGMDGELTGLENIKLRGLFLGLSKNEIKNITEDVIEFSELGDFIKIPVRTYSSGMVLRLGFSISTAINPEILLMDEWMSVGDSDFKRKAEMRLNSFISKAGIMVMATHDDELAKSVCNKFIRLEHGEIVSKGGF	not soluble
SEEYDTNFYKKLFDAMFVNEDELKEMGKDPKEYMENLLKEAEEKSLKEKMELYKKYNVIEIDSLEDEYQSTAEGYGNLEDVKKFIQKYDINGVYDGYTLLYTYSGYRGETNIIEFLIENNADIYKKSINGKTPLYSAVDDYFYDAAEVILKHYKDNDDINDEFLLAVNNENEPMLRILLKKKFLFFGNKFKMNLDKGLEIALDKGNKDIAAELVLSGAKTDNFLYYFK	not soluble
